In test [1] the target is T1, Streptavidin (Streptomyces avidinii, UniProt P22629). Kind of test: FACS. (In flow cytometry, cells or beads pass a laser one at a time.)
Test [2] concerns the target T1, Streptavidin. Kind of test: FACS. The source holds these as a separate data set.

These results are taken from patent US20160032279 (published 2016).

Read-outs that look alike come from different tables or passages of the source. No end group written: not given here.

T1 sequence (P22629 37-163): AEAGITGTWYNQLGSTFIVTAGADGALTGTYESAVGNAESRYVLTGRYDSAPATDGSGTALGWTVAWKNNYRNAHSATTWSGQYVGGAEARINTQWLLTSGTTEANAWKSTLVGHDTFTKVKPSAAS

Usually Kd stands for the concentration at which binding is half-saturated. A higher Kd goes with a looser complex. TVLICMNICWTGETQ (cysteine pairing not given here; also: phycoerythrin conjugate) [SA-3]: the dissociation constant (Kd) with Streptavidin [1] and in the test with Streptavidin [2] was 4 nM each time.

Consider ICSYVMYTTCFLRVY (cysteine pairing not given here; also: phycoerythrin conjugate) [SA-2], for which the Kd with Streptavidin [2] was found to be 8 nM.

The molecule RLEICQNVCYYLGTL (cysteine pairing not given here; also: phycoerythrin conjugate) [SA-1] gave a Kd with Streptavidin [2] of 10 nM.
